Earlier results, collected in PMC6811625.

Target: Im7 (Escherichia coli) (UniProt Q03708)
Sequence (Q03708 whole entry): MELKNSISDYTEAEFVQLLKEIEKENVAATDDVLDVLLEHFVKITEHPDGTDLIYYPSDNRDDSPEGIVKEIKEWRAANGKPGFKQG

Chain of Spy (P77754 24-161): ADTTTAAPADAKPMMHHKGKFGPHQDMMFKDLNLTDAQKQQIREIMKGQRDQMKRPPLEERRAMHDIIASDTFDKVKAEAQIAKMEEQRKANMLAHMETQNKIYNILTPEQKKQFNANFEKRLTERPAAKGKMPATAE

Spy (from UniProt P77754)
Kd: 30 µM
